Here are results for 4 molecules from PMC10671532, “Expanded Substrate Specificity in D-Amino Acid Transaminases: A Case Study of Transaminase from Blastococcus saxobsidens” (International Journal of Molecular Sciences, 2023).

As a reminder, the stoichiometry N is a count of units in the complex or per binding partner. The Km is the substrate concentration at which the rate is half of its maximum. In general, kcat refers to the number of substrate molecules converted per active site and unit of time at saturation. The kcat/Km is the turnover number divided by the Michaelis constant.

The target in data set [1] is T1, BlasaTA (transaminase from Blastococcus saxobsidens) (Blastococcus saxobsidens, UniProt H6RQF3).
T1 construct: gene BLASA_4517; codon-optimized gene in modified pET-21d; N-terminal His6 tag with TEV site kept for kinetics, cut for crystals; E. coli Rosetta (DE3) pLysS; homodimer ~60 kDa
Nature of the data set: half-reaction with PLP form, absorbance at […] nm, kobs fit. Particulars: pH 8.0, 50 mM K-phosphate, 30 °C, single half-reaction, read-out: 50 mM K-Phosphate Buffer, pH 8.0 / KD. The data set is classed as biochemical.

The target in data set [2] is Recombinant D-amino acid transaminase from Blastococcus saxobsidens (BlasaTA), (His)6-tagged (Blastococcus saxobsidens (strain DD2)). Nature of the data set: SEC; gel filtration of the purified enzyme; molecular weight approximately 60 kDa against 29.1 kDa for the subunit; conditions not shown. On the technique in general: SEC sorts molecules by how far they enter the pores of the column.

Substrate in data set [3]: C[C@@H](N)C(=O)O
Nature of the data set: purified protein. Particulars: co-substrate 5 mM α-ketoglutarate, pH 8.0, 50 mM K-phosphate, 40 °C.

Substrate in data set [4]: CC(=O)C(=O)O
Nature of the data set: purified protein. Type of data set: biochemical, Blastococcus saxobsidens. To be noted: co-substrate 15 mM D-glutamate, pH 8.0, 50 mM K-phosphate, 40 °C.

Substrate in data set [5]: CC(C)CC(=O)C(=O)O
Nature of the data set: purified protein. The data set is classed as biochemical, Blastococcus saxobsidens. Particulars: co-substrate 25 mM D-alanine, pH 8.0, 50 mM K-phosphate, 40 °C.

Substrate in data set [6]: C[C@@H](N)c1ccccc1
Put plainly: purified protein. Particulars: co-substrate 2 mM α-ketoglutarate, pH 9.0, 50 mM CHES, 30 °C. Type of data set: biochemical, Blastococcus saxobsidens.

Substrate in data set [7]: N[C@H](CCC(=O)O)C(=O)O
Put plainly: purified protein. The data set is classed as biochemical, Blastococcus saxobsidens. Particulars: co-substrate 15 mM pyruvate, pH 8.0, 50 mM K-phosphate, 40 °C.

Substrate in data set [8]: O=C(O)CCC(=O)C(=O)O
Put plainly: purified protein. Type of data set: biochemical, Blastococcus saxobsidens. Particulars: co-substrate 25 mM D-alanine, pH 8.0, 50 mM K-phosphate, 40 °C.

Turning to `N[C@H](Cc1ccccc1)C(=O)O` [D-Phenylalanine], in data set [1], the Kd came out at 32 ± 2 mM.

Regarding “Recombinant D-amino acid transaminase from Blastococcus saxobsidens (BlasaTA), (His)6-tagged (enzyme)”, the stoichiometry N in data set [2] was determined as 2.

Consider `C[C@@H](N)c1ccccc1` [(R)-1-Phenylethyl amine], for which, in data set [1], the Kd came out at 19 ± 2 mM.

B1: BlasaTA (transaminase from Blastococcus saxobsidens) (Blastococcus saxobsidens DD2) (protein)
chain: MNEQRSVAVWRDGAAVTVPAHQPVVTAFDLGLGRGDGIFESVAVVAGRTPHLAAHLTRLTRSAALLGLPAPGDQAWMEMVAAVLADWPAALEGVCRLFLTRGLGDGTPPTALALLAPVPADTLRQRAEGISVATLGLGVPADFRAGAPWLLGGAKTLSYAVNMAAQRHAHDLGADDVVFTSLEGRLLEGPTSTVVWAAGGTLHTPPVETGILPGTTQARLFTAAAADGWPTSVTPGTVDDLHAADAVWLLSGVRGAAVVHTVDGVRRGDGDLSRRVRELLAR
notes: codon-optimized gene in modified pET-21d; N-terminal His6 tag with TEV site kept for kinetics, cut for crystals; E. coli Rosetta (DE3) pLysS; homodimer ~60 kDa
In the case of B1, the Km in data set [3] is 2.0 ± 0.3 mM; in data set [4], 1.6 ± 0.1 mM; in data set [5], 45 ± 2 mM; in data set [6], 6.6 ± 0.4 mM; in data set [7], 0.40 ± 0.06 mM; in data set [8] it was 0.53 ± 0.06 mM. The kcat in data set [3] worked out at 8.1 s⁻¹; in data set [4] it was 7.5 ± 0.3 s⁻¹; in data set [5] it was 0.19 ± 0.004 s⁻¹; in data set [6] it was 0.053 ± 0.002 s⁻¹; in data set [7], 7.5 ± 0.3 s⁻¹; in data set [8], 8.1 ± 0.3 s⁻¹. Also, the kcat/Km in data set [3] worked out at 4000 M⁻¹ s⁻¹; in data set [4] it was 4700 ± 500 M⁻¹ s⁻¹; in data set [5], 4.2 ± 0.3 M⁻¹ s⁻¹; in data set [6] it was 8 ± 0.8 M⁻¹ s⁻¹; in data set [7] it was 18800 ± 3600 M⁻¹ s⁻¹; in data set [8], 15300 ± 2300 M⁻¹ s⁻¹.
